In PMC4352895 (2015):
Each block holds one binder with its values, some of them ahead of it. Ends that are not written are not given here. Me3 = trimethyl-lysine; Me2 = dimethyl-lysine

Biological target: ΔEed (Eed residues 77 to 441) (UniProt O75530 77-441)
Assay: ITC

Chain of ΔEed (Eed residues 77 to 441) (O75530 77-441, stated change not applied): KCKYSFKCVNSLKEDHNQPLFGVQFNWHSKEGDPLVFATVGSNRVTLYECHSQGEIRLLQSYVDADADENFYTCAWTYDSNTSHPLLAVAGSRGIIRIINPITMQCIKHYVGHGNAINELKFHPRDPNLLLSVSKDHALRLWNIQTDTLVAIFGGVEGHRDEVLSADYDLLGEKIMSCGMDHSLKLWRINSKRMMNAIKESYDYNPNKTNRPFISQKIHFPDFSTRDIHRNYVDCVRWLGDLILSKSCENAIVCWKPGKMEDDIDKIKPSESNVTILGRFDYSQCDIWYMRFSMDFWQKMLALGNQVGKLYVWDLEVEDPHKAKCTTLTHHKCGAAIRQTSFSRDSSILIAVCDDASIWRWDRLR

B1: H3K27me2 (peptide)
chain: QLATKAARKSAPATG
modifications: dimethyl-Lys27 (mature numbering; K28 of precursor). Taken as the H3K27me2 peptide of the Figure 5C table; limits are mature 19-33 by convention for Eed binding peptides, not given
Kd: 68 µM

Binder: QLATKAARKSAPATG (trimethyl-lysine at K27) [H3K27me3 peptide]
Kd: 36.4 µM

Further lines, results first:

Kd: 3.4 µM
Binder: RLQAQRK(Me3)FAQSQY [Jarid2-K116me3 peptide]

Kd: 10.4 µM
Binder: RLQAQRK(Me2)FAQSQY [Jarid2-K116me2 peptide]
